# Assay results reported in US20230057904A1 (Chugai, published 2023).
# Positions count from the first letter of the chain named.
# B1: CDA0013/TR01 (bispecific antibody, V domains shown)
# VH 1: QSLEESGGRLVTPGTPLTLTCTVSGIDLNNYGVGWVRQPPGKGLEWIGYINALGSAYYASWAKGRFTISRTSTTVDLKITSPTTEDTATYFCARVRYLYIGGGGYWIDRLDLWGQGTLVTVSS
# VL 1: DVVMTQTPASVEAAVGDTVTIKCQASQSISSCLSWYQQKPGQPPKLLIYYASTLASGVPSRFSGSGSGTEFTLTISGLQCDDAATYYCLGVVSYVSADGGFGGGTEVVVK
# VH 2: QVQLVESGGGVVQPGGSLRLSCAASGFTFSNAWMHWVRQAPGKGLEWVAQIKDKSQNYATYVAESVKGRFTISRADSKNSIYLQMNSLKTEDTAVYYCRYVHYAAGYGVDIWGQGTTVTVSS
# VL 2: DIVMTQSPLSLPVTPGEPASISCRSSQPLVHSNRNTYLHWYQQKPGQAPRLLIYKVSNRFSGVPDRFSGSGSGTDFTLKISRVEAEDVGVYYCGQGTQVPYTFGQGTKLEIK
# notes: CDA0013 is rabbit-derived; IgG format by Fab arm exchange, silent Fc; also called anti-CLDN6/CD3 bispecific antibody CDA0013/TR01
# B2: 6PHU3/TR01 (bispecific antibody, V domains shown)
# VH 1: EVQLQQSGPELVKPGASMKISCKASGYSFTGYTMNWVKQSHGKNLEWIGLINPYNGGTIYNQKFKGKATLTVDKSSSTAYMELLSLTSEDSAVYYCARDYGFVLDYWGQGTTLTVSS
# VL 1: DIVLTQSPSIMSVSPGEKVTITCSASSSVSYMHWFQQKPGTSPKLCIYSTSNLASGVPARFSGRGSGTSYSLTISRVAAEDAATYYCQQRSNYPPWTFGGGTKLEIK
# VH 2: B1 VH 2
# VL 2: B1 VL 2
# notes: IgG format by Fab arm exchange, silent Fc; also called anti-CLDN6/CD3 bispecific antibody 6PHU3/TR01
# Experiments:
# [1] = target: T1, mouse CLDN9 (mouse, UniProt Q9Z0S7 1-217); assay: flow cytometry, FreeStyle 293-F transfectants expressing mouse CLDN9, anti-human IgG Alexa Fluor 647; MFI
# T1 construct: also called mCLDN9; mCLDN9/FS293
# T1 sequence: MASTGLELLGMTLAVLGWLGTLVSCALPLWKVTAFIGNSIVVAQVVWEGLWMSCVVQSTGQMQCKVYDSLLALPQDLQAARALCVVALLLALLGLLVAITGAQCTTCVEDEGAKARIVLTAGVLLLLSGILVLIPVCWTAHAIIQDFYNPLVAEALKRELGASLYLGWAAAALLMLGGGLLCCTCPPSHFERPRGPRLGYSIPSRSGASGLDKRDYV
# Protocol: (§1) Antibodies were mixed with FreeStyle™ 293-F cells transiently expressed human and mouse CLDN3, 4, 6, and 9 at final concentration of 10 micro g/mL. After 1 hour of incubation, cells were washed by 0.1% BSA containing D-PBS(−), and incubated in 5 micro g/mL of either Goat anti-Human IgG (H+L) Cross-Adsorbed Secondary Antibody, Alexa Fluor 647 (Invitrogen, A21445) or Goat anti-Mouse IgG (H+L) Highly Cross-Adsorbed Secondary Antibody, Alexa Fluor 647 (Invitrogen, A21236), for 1 hour. Cells were then washed with 0.1% BSA containing D-PBS(−), resuspended in 5 micro L of 0.1% BSA containing D-PBS(−), and analyzed by flow cytometer (iQue Screener, intellicyte).
# [2] = target: T2, human CLDN9 (human, UniProt O95484 1-217); assay: flow cytometry, FreeStyle 293-F transfectants expressing human CLDN9, anti-human IgG Alexa Fluor 647; MFI
# T2 construct: also called hCLDN9; hCLDN9/BaF
# T2 sequence: T1 sequence with V86I, L124I, S128A, S188P, H189Q, F190V
# Protocol: as §1
# [3] = target: T3, mouse CLDN6 (mouse, UniProt Q9Z262 1-219); assay: flow cytometry, FreeStyle 293-F transfectants expressing mouse CLDN6, 10 micro g/mL antibody, anti-human IgG Alexa Fluor 647; MFI
# T3 construct: also called mCLDN6; mCLDN6/FS293
# T3 chain: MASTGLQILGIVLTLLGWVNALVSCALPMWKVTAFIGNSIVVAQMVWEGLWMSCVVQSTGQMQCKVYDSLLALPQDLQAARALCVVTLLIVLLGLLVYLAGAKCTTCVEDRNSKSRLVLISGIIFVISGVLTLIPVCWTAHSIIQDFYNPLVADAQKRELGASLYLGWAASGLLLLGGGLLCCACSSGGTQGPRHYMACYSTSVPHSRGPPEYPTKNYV
# Protocol: as §1
# [4] = target: T4, mouse CLDN3 (mouse, UniProt Q9Z0G9 1-219); assay: flow cytometry, FreeStyle 293-F transfectants expressing mouse CLDN3, anti-human IgG Alexa Fluor 647; MFI
# T4 construct: also called mCLDN3; mCLDN3/FS293
# T4 sequence: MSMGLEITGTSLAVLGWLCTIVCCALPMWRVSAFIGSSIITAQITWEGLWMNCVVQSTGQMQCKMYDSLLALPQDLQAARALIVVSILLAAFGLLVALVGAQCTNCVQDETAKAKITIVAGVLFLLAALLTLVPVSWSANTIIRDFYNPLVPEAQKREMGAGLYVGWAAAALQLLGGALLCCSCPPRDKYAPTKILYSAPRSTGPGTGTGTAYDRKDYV
# Protocol: as §1
# [5] = target: T5, mouse CLDN4 (mouse, UniProt O35054 1-210); assay: flow cytometry, FreeStyle 293-F transfectants expressing mouse CLDN4, anti-human IgG Alexa Fluor 647; MFI
# T5 construct: also called mCLDN4; mCLDN4/FS293
# T5 sequence: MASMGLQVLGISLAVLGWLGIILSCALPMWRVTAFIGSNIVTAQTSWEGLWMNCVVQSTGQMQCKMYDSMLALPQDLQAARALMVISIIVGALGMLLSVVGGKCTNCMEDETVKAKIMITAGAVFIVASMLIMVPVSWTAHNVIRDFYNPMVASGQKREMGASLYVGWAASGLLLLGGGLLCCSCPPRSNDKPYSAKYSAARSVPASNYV
# Protocol: as §1
# [6] = target: T6, human CLDN3 (human, UniProt O15551 1-220); assay: flow cytometry, FreeStyle 293-F transfectants expressing human CLDN3, anti-human IgG Alexa Fluor 647; MFI
# T6 construct: also called hCLDN3; hCLDN3/BaF
# T6 sequence: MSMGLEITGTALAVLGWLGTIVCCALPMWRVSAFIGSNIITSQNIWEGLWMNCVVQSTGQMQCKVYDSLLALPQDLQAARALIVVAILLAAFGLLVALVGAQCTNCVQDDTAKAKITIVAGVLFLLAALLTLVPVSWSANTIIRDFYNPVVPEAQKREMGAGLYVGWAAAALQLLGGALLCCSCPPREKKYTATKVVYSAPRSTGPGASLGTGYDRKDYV
# Protocol: as §1
# [7] = target: T7, human CLDN4 (human, UniProt O14493 1-209); assay: flow cytometry, FreeStyle 293-F transfectants expressing human CLDN4, anti-human IgG Alexa Fluor 647; MFI
# T7 construct: also called hCLDN4; hCLDN4/BaF
# T7 sequence: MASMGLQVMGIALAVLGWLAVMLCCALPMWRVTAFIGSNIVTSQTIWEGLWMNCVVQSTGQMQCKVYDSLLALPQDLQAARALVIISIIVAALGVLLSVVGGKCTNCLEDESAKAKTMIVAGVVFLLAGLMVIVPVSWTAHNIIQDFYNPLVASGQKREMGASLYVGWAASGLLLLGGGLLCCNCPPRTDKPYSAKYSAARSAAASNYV
# [8] = target: T7, human CLDN4; assay: flow cytometry on hCLDN4/BaF (Ba/F3 transfectant), Alexa Fluor 488 anti-human IgG; histogram against KLH/TR01
# Protocol: Amino acid sequence are highly conserved among CLDN3, CLDN4, CLDN6 and CLDN9. Thus we examined CLDN6 binding specificity by FACS analysis. hCLDN6/BaF, hCLDN3/BaF, hCLDN4/BaF, and hCLDN9/BaF were incubated with CS2201, CS2961, AH05/TR01 and 6PHU3/TR01 at 15 micro g/ml. KLH/TR01 generated in Example 2-3 was used as a staining control. Binding of each antibody was detected with Alexa Fluor 488-conjugated anti human IgG (Invitrogen). Dead cells were separated by eFlour 780 (Invitrogen) staining.
Binder,binding result [1],binding result [2],binding result [3],binding result [4],binding result [5],binding result [6],binding result [7],binding result [8]
B1,no binding (tested: 10 micro g/mL),no binding (tested: 10 micro g/mL),binds,no binding (tested: 10 micro g/mL),no binding (tested: 10 micro g/mL),no binding (tested: 10 micro g/mL),no binding (tested: 10 micro g/mL),
B2,,,binds,no binding (tested: 10 micro g/mL),no binding (tested: 10 micro g/mL),no binding (tested: 10 micro g/mL),,no binding (tested: 15 micro g/ml)
